± gives the uncertainty stated by the source.
Assay: protein stability index of a GFP-peptide fusion (yeast GPS) (PSI 1-4); higher = more stable; sorted into four equal gates, so the index is relative within each strain
How it was run: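 Sequencing reads from sorted gates were used to score each peptide. The library consisted of tiled 17-residue yeast protein peptides fused downstream of GFP on a Cherry-expressing plasmid, pooled and carried in yeast. Mid-log cultures in leucine-free medium were split into four equal gates by GFP/Cherry ratio, and each gate's plasmids were PCR-amplified and Illumina-sequenced. The protein stability index adds up, over all gates, the read frequency multiplied by the gate number.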

Sequence | protein stability index (doa10∆) | protein stability index (pdr5∆) | protein stability index (san1∆) | protein stability index (ubr1∆)
TDLEKKHLWDQKSLAAL [RPC17] | 2.86 ± 0.11 | 2.98 ± 0.062 | 2.94 ± 0.081 | 3.02 ± 0.059
NGFSFTKFNHNKEKSNS [YOR098C/NUP1] | 2.69 ± 0.082 | 2.98 ± 0.075 | 2.77 ± 0.039 | 2.57 ± 0.052
LMDKCLPKVRIRTRRAA [DIS3] | 1.86 ± 0.06 | 1.34 ± 0.048 | 1.42 ± 0.085 | 1.5 ± 0.039
EILEHICYDVNDWQMLE [RPB2] | 2.84 ± 0.12 | 3.02 ± 0.086 | 2.74 ± 0.08 | 2.98 ± 0.081
HQHIGKASTISRGAVSG [RPL2A] | 2.55 ± 0.043 | 2.39 ± 0.059 | 2.83 ± 0.055 | 3.12 ± 0.05
VRCKDCGHRILLKARTK [RPC10] | 2.55 ± 0.12 | 2.64 ± 0.11 | 2.56 ± 0.1 | 2.87 ± 0.072
LTITKAAGANVDNVWAD [RPP1B] | 2.63 ± 0.089 | 2.26 ± 0.063 | 2.78 ± 0.15 | 2.85 ± 0.059
GIRIISLTYKKISLRDI [RPN3] | 1.78 ± 0.068 | 1.4 ± 0.065 | 1.29 ± 0.15 | 1.5 ± 0.053
DEEENGSSDEDLKSLNV [SSN2] | 3.24 ± 0.11 | 3.54 ± 0.1 | 3.35 ± 0.057 | 3.23 ± 0.093
MPNSSLQPFYSQPTAAG [DSN1] | 2.33 ± 0.076 | 2.71 ± 0.067 | 2.44 ± 0.056 | 2.78 ± 0.064
VTDDDRLWLKKVMEEEE [POP8] | 1.43 ± 0.066 | 1.89 ± 0.07 | 1.57 ± 0.089 | 2.07 ± 0.07
AALYKEVYNVIASDGSY [RPO21] | 2.34 ± 0.089 | 1.77 ± 0.1 | 2.22 ± 0.15 | 3.06 ± 0.12
NECIEERVPKTQLDKLR [SMB1] | 3.1 ± 0.051 | 3.07 ± 0.062 | 3.136 ± 0.03 | 3.24 ± 0.046
KVEKVVKCKMSALQQIM [SNF2] | 2.86 ± 0.12 | 3.05 ± 0.24 | 2.95 ± 0.14 | 3.13 ± 0.09
FTQLKKNIPKTRYNRDY [SNU114] | 2.48 ± 0.052 | 2.59 ± 0.056 | 2.98 ± 0.04 | 2.79 ± 0.051
DLDLNEQVRKMYQEWED [NSL1] | 2.97 ± 0.13 | 3.39 ± 0.11 | 3.26 ± 0.071 | 2.92 ± 0.11
FLRQKICLMTLIETVFV [RPN9] | 1.37 ± 0.12 | 1.32 ± 0.12 | 1.06 ± 0.14 | 1.94 ± 0.28
LQDLSRYSRQFINNVLS [GRR1] | 2.78 ± 0.059 | 2.29 ± 0.049 | 2.56 ± 0.049 | 2.74 ± 0.051
PSKTPEVYMRYRNFMVN [SWI3] | 1.8 ± 0.075 | 1.81 ± 0.072 | 1.82 ± 0.14 | 1.81 ± 0.062
DVHNGYILRYLHANGAS [COB] | 2.83 ± 0.096 | 2.37 ± 0.093 | 1.93 ± 0.11 | 2.5 ± 0.079
KLHMGTDDVRLAPELNQ [RPL31A] | 3.11 ± 0.12 | 3.25 ± 0.083 | 3.13 ± 0.083 | 3.09 ± 0.052
RSGALIKFKKCDGDTVW [SSN2] | 2.85 ± 0.053 | 2.9 ± 0.048 | 2.62 ± 0.048 | 2.71 ± 0.043
EKSAYKFFHNGMIYNKL [FAS2] | 2.92 ± 0.086 | 2.81 ± 0.07 | 2.88 ± 0.071 | 2.83 ± 0.064
LSALDHYERTQTKENKR [RPN8] | 2.91 ± 0.077 | 2.82 ± 0.087 | 2.71 ± 0.073 | 2.68 ± 0.057
GALHFVQQSEKLRNEVE [YIL149C/MLP2] | 3.17 ± 0.14 | 3.16 ± 0.22 |  | 3.16 ± 0.12
LYKEFFNEKFPSLIQEE [NUT1] | 3 ± 0.13 | 3.19 ± 0.13 | 3.06 ± 0.059 | 3.2 ± 0.12

Sequence | protein stability index (doa10∆) | protein stability index (pdr5∆) | protein stability index (san1∆) | protein stability index (ubr1∆)
HEDEKLIPTIFRYITTW [PRP8] | 2.6 ± 0.06 | 2.25 ± 0.048 | 1.9 ± 0.051 | 2.23 ± 0.033
ANARDFGEWAGMTKSNI [BRR2] | 2.28 ± 0.12 | 2.82 ± 0.14 | 1.55 ± 0.12 | 2.37 ± 0.079
GHIVSLELTTGATYRGK [SMD3] | 1.98 ± 0.049 | 2.03 ± 0.049 | 2.12 ± 0.085 | 2.34 ± 0.053
LARGHRVEKIPEIPLVV [RPL4A] |  | 3.42 ± 0.25 |  | 
KKQQAALTNELNELKAI [YIL149C/MLP2] | 1.42 ± 0.052 | 1.86 ± 0.07 | 1.83 ± 0.092 | 1.55 ± 0.051
GKGTGKTAMAELALLNH [BRR2] | 3.19 ± 0.11 | 3.51 ± 0.15 | 3.45 ± 0.099 | 3.22 ± 0.082
PGTGKTLLARAVAHHTD [RPT6] | 1.78 ± 0.05 | 2.76 ± 0.06 | 1.53 ± 0.11 | 1.49 ± 0.057
AIEPETFTQLVSSSLYE [PUP3] | 2.35 ± 0.063 | 2.89 ± 0.068 | 2.75 ± 0.063 | 2.54 ± 0.043
MSDTEAPVEVQEDFEVV [RPS5] | 3.23 ± 0.1 | 3.24 ± 0.15 | 3.35 ± 0.078 | 3.09 ± 0.086
DERIEKELNTERQIFLE [CDC53] | 2.9 ± 0.1 | 3.09 ± 0.12 | 3.13 ± 0.097 | 3.12 ± 0.086
LDPNLITLALSSNPNSS [SRB4] | 2.31 ± 0.067 | 2.86 ± 0.095 | 2.4 ± 0.084 | 2.56 ± 0.11
ENVLAIGIAGAHRVRDL [SKI6] | 1.97 ± 0.065 | 2.21 ± 0.059 | 2.1 ± 0.084 | 1.74 ± 0.052
KEPPRDRKKDKNVKHSG [RPL12A] | 3.29 ± 0.09 | 3.12 ± 0.084 | 3.22 ± 0.067 | 3.17 ± 0.061
LERRELEGTRVSLEERT [SMC4] | 3.4 ± 0.096 | 3.35 ± 0.082 | 3.29 ± 0.063 | 3.36 ± 0.1
LGEIPNPMKKHKPNEGR [SIR4] | 2.58 ± 0.077 | 2.55 ± 0.086 | 2.8 ± 0.062 | 2.88 ± 0.04
QDDIDEMVENSSENNQI [SRP68] | 3.35 ± 0.1 | 3.25 ± 0.11 | 2.97 ± 0.14 | 3.35 ± 0.088
WAMQGISYLQEVQCTST [PCI8] | 3.32 ± 0.15 | 3.06 ± 0.13 | 2.19 ± 0.16 | 3.02 ± 0.099
QEGIEAIATTVIAHLTV [RET1] | 1.86 ± 0.057 | 1.93 ± 0.05 | 1.84 ± 0.059 | 2.01 ± 0.033
QMAKDVTTFLNWCAEPE [CYT1] | 3.4 ± 0.068 | 3.25 ± 0.067 | 3.04 ± 0.098 | 3.46 ± 0.073
IEDLWQFLYEKHYKNIP [RPC82] | 2.23 ± 0.088 | 1.53 ± 0.078 | 1.62 ± 0.19 | 2.1 ± 0.071
VFIRHRTPHEIQEANSV [RIP1] |  | 2.24 ± 0.28 |  | 1.69 ± 0.17
PSYSPTSPGYSPGSPAY [RPO21] | 2.52 ± 0.067 | 2.27 ± 0.053 | 2.33 ± 0.1 | 2.02 ± 0.043
IVTPVEKAVEEKPAVKS [RPT3] | 2.6 ± 0.1 | 3.07 ± 0.064 | 3.17 ± 0.051 | 3.13 ± 0.086
SLAPEADLDSLIIRNDS [RPT3] | 2.92 ± 0.11 | 3.01 ± 0.08 | 2.77 ± 0.055 | 2.82 ± 0.071
YFAKLREYLEEYKSLFV [RPP0] | 2.46 ± 0.19 | 2.65 ± 0.15 | 2.98 ± 0.073 | 3.24 ± 0.095
LYGVTICYNKKTEYVLN [REC8] | 1.3 ± 0.058 | 1.3 ± 0.14 | 1.14 ± 0.13 | 1.34 ± 0.062

Reference: the supplement of paper PMC9732359
